The record followed here is patent US20230250139A1 (MIT, published 2023).

To fix the notation:
B1: CMV-DHF40-Linker8-HA (other)
chain: MSSEKEELRERLVKICVELAKLKGDDTLKAAEAAEEAFRLVVLAAMLAGIDSSEVLELAIRLIKTCVVLAAMEGYDISEACRAAAEAFTRVAMAALRAGITSSLVLKAAIELIKECVLNAAVEGYDISEACRAAAEAFKRVAEAAKRAGITSLETLLRAIEEIRKRVEEAQREGNDISEACRQAAEEFRKKAEELKRRGDVGGSGGTGGYPYDVPDYA
B2: CMV-1POK(E239Y)-Linker8-HA (other)
chain: MIDYTAAGFTLLQGAHLYAPEDRGICDVLVANGKIIAVASNIPSDIVPNCTVVDLSGQILCPGFIDQHVHLIGGGGEAGPTTRTPEVALSRLTEAGVTSVVGLLGTDSISRHPESLLAKTRALNEEGISAWMLTGAYHVPSRTITGSVEKDVAIIDRVIGVKCAISDHRSAAPDVYHLANMAAESRVGGLLGGKPGVTVFHMGDSKKALQPIYDLLENCDVPISKLLPTHVNRNVPLFYQALEFARKGGTIDITSSIDEPVAPAEGIARAVQAGIPLARVTLSSDGNGSQPFFDDEGNLTHIGVAGFETLLETVQVLVKDYDFSISDALRPLTSSVAGFLNLTGKGEILPGNDADLLVMTPELRIEQVYARGKLMVKDGKACVKGTFETAGGSGGTGGYPYDVPDYA
B3: UBC-1POK(E239Y)-Linker7-HA-Linker3-Top7 (other)
chain: MIDYTAAGFTLLQGAHLYAPEDRGICDVLVANGKIIAVASNIPSDIVPNCTVVDLSGQILCPGFIDQHVHLIGGGGEAGPTTRTPEVALSRLTEAGVTSVVGLLGTDSISRHPESLLAKTRALNEEGISAWMLTGAYHVPSRTITGSVEKDVAIIDRVIGVKCAISDHRSAAPDVYHLANMAAESRVGGLLGGKPGVTVFHMGDSKKALQPIYDLLENCDVPISKLLPTHVNRNVPLFYQALEFARKGGTIDITSSIDEPVAPAEGIARAVQAGIPLARVTLSSDGNGSQPFFDDEGNLTHIGVAGFETLLETVQVLVKDYDFSISDALRPLTSSVAGFLNLTGKGEILPGNDADLLVMTPELRIEQVYARGKLMVKDGKACVKGTFETAGGSGGTGYPYDVPDYAGSGDIQVQVNIDDNGKNFDYTYTVTTESELQKVLNELKDYIKKQGAKRVRISITARTKKEAEKFAAILIKVFAELGYNDINVTWDGDTVTVEGQLE
B4: UBC-1POK(E239Y)-Linker25-HA-gsg-Top7 (other)
chain: MIDYTAAGFTLLQGAHLYAPEDRGICDVLVANGKIIAVASNIPSDIVPNCTVVDLSGQILCPGFIDQHVHLIGGGGEAGPTTRTPEVALSRLTEAGVTSVVGLLGTDSISRHPESLLAKTRALNEEGISAWMLTGAYHVPSRTITGSVEKDVAIIDRVIGVKCAISDHRSAAPDVYHLANMAAESRVGGLLGGKPGVTVFHMGDSKKALQPIYDLLENCDVPISKLLPTHVNRNVPLFYQALEFARKGGTIDITSSIDEPVAPAEGIARAVQAGIPLARVTLSSDGNGSQPFFDDEGNLTHIGVAGFETLLETVQVLVKDYDFSISDALRPLTSSVAGFLNLTGKGEILPGNDADLLVMTPELRIEQVYARGKLMVKDGKACVKGTFETAGGSGGTGGSGGTGGSGGTGGSGGTGYPYDVPDYAGSGDIQVQVNIDDNGKNFDYTYTVTTESELQKVLNELKDYIKKQGAKRVRISITARTKKEAEKFAAILIKVFAELGYNDINVTWDGDTVTVEGQLE
B5: UBC-1POK(E239Y)-Linker12-gg-HA (other)
chain: MIDYTAAGFTLLQGAHLYAPEDRGICDVLVANGKIIAVASNIPSDIVPNCTVVDLSGQILCPGFIDQHVHLIGGGGEAGPTTRTPEVALSRLTEAGVTSVVGLLGTDSISRHPESLLAKTRALNEEGISAWMLTGAYHVPSRTITGSVEKDVAIIDRVIGVKCAISDHRSAAPDVYHLANMAAESRVGGLLGGKPGVTVFHMGDSKKALQPIYDLLENCDVPISKLLPTHVNRNVPLFYQALEFARKGGTIDITSSIDEPVAPAEGIARAVQAGIPLARVTLSSDGNGSQPFFDDEGNLTHIGVAGFETLLETVQVLVKDYDFSISDALRPLTSSVAGFLNLTGKGEILPGNDADLLVMTPELRIEQVYARGKLMVKDGKACVKGTFETAGGSGGTGGSGGTGGYPYDVPDYA

The series concerns the molecule itself. In words: self-assembly in cultured mouse hippocampal neurons; anti-HA immunofluorescence, confocal.
Turning to B1, the binding result was “binds”. As to B2, the binding result was “binds”. In the case of B3 it was “binds”.

On to B4, for which the binding result is “binds”. On to B5, for which the binding result is recorded as “binds”.
